Our source for the Km values is ChEMBL document CHEMBL2074463, “Characterization of the hepatic canalicular membrane transport of a model oligopeptide: ditekiren” (J Pharmacol Exp Ther, 1997).

This series deals with CC[C@H](C)[C@H](NC(=O)[C@@H](C[C@H](O)[C@H](CC(C)C)NC(=O)[C@H](Cc1c[nH]cn1)N(C)C(=O)[C@H](Cc1ccccc1)NC(=O)[C@@H]1CCCN1C(=O)OC(C)(C)C)C(C)C)C(=O)NCc1ccccn1. The experiment in a line: TP_TRANSPORTER: uptake, inhibited by Cyclosporine, Nicardipine, Daunomycin, Verapamil, Reserpine, Rhodamine 123 and Vinblastine in bile canalicular membrane vesicles. The series is classed as functional, cell membranes. The note with it: Rattus norvegicus; Bile canalicular membrane vesicle.

The Km is the concentration of substrate that gives half-maximal velocity. In the case of “Multidrug resistance protein 1a (Rattus norvegicus), Q6PSM0”, the Km stood at 19.1 µM.
